B1: ScFv 25VH/25VL (ScFv engineered from the V regions of the Phl p 1-specific IgE Fab clone 25) (scFv, V domains shown)
VH: LESGGGLVQPGGSLRLSCAASGFTFDDHAMHWVRQTPEKGLQWVSGISWNSGVVAYADSVKGRFSISRDNAKNSLYLQMNNLIPEDTAVYYCVRDFRAASPYFFDYWGQGTRVTVSS
VL: ELTQSPSSLSASVGDRVTITCRASQSIGNYLNWYQQKPGKAPNLLIYAASSLQSGVPSRFSGSGSGTDFTLTISSLQREDFATYYCQQSNRTPITFGQGTRLEIK
B2: P1 IgG1 (complete human monoclonal IgG1 Ab with the V regions of IgE Fab clone 25) (antibody, V domains shown)
VH: B1 VH
VL: B1 VL

Target: T1, Pep 4 (synthetic Phl p 1-derived peptide) (Phleum pratense (timothy grass))
T1 chain: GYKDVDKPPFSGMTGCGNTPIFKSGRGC
Assay: ELISA

binding result | Binder
no binding | B1
no binding | B2

— article PMC4476238 (Journal of immunology (Baltimore, Md. : 1950), 2015)
